From the supplement of paper PMC7877785
± gives the uncertainty stated by the source.

Test: self-splicing fitness, log relative to wild type (ln ratio); higher = more splicing; Tetrahymena group I intron in knt gene, E. coli kanamycin selection, DiMSum; sequences stand for … in CUCUCU…GGAGGGAAAAGUUAUCAGGCAUGCACCUGGUAGCUAGUCUUUAAACCAAUAGAUUGCAUCGGUUUAAAAGGCAAGACCGUCAAAUUGCGGGAAAGGGGUCAACAGCCGUUCAGUACCAAGUCUCAGGGGAAACUUUGAGAUGGCCUUGCAAAGGGUAUGGUAAUAAGCUGACGGACAUGGUCCUAACCACGCAGCCAAGUCCUAAGUCAACAGAUCUUCUGUUGAUAUGGAUGCAGUUCACAGACUAAAUGUCGGUCGGGGAAGAUGUAUUCUUCUCAUAAGAUAUAGUCGGACCUCUCCUUAAUGGGAGCUAGCGGAUGAAGUGAUGCAACACUGGAGCCGCUGGGAACUAAUUUGUAUGCGAAAGUAUAUUGAUUAGUUUUGGAGUACUCGUGGUCG
Summary of the method: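 Colonies from six replicate transformations of E. coli BL21(DE3) were pooled and amplicon-sequenced on an Illumina HiSeq 2500. The library placed an intron with all eight P1ex-region nucleotides randomised inside the knt kanamycin-resistance gene on pET-22b(+), and cells grew overnight at 37°C or 30°C on LB agar with or without 25 μg/mL kanamycin (plus 100 μg/mL carbenicillin, 50 μM IPTG, 0.2% rhamnose). Fitness is the DiMSum error-weighted combination of wild-type-normalised replicate fold changes, kanamycin versus none.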

Row | Sequence | self-splicing fitness (ln) (30 °C) | self-splicing fitness (ln) (37 °C)
1 | ACCCAGCAAUAUUACGAUCC | -1.96 ± 0.079 | -1.17 ± 0.12
2 | ACCCAGCAAUAUUACGAUUC | -1.71 ± 0.046 | -0.7 ± 0.063
3 | ACCCAGCAAUAUUACGCAGC | -1.41 ± 0.068 | -0.445 ± 0.068
4 | ACCCAGCAAUAUUACGCCAA | -2.43 ± 0.15 | -2.03 ± 0.15
5 | ACCCAGCAAUAUUACGCCGG | -3.06 ± 0.16 | -2.96 ± 0.26
6 | ACCCAGCAAUAUUACGCGAU | -1.84 ± 0.1 | -1.47 ± 0.11
7 | ACCCAGCAAUAUUACGCGCG | -1.66 ± 0.077 | -0.872 ± 0.097
8 | ACCCAGCAAUAUUACGCUCU | -0.186 ± 0.058 | 0.107 ± 0.067
9 | ACCCAGCAAUAUUACGCUGC | -3.77 ± 0.26 | -2.88 ± 0.27
10 | ACCCAGCAAUAUUACGGCGA | -0.786 ± 0.076 | 0.532 ± 0.096
11 | ACCCAGCAAUAUUACGGCUG | -3.68 ± 0.2 | -2.06 ± 0.18
12 | ACCCAGCAAUAUUACGGGCU | -1.68 ± 0.07 | -0.729 ± 0.072
13 | ACCCAGCAAUAUUACGGUAG | -3.82 ± 0.11 | -2.97 ± 0.16
14 | ACCCAGCAAUAUUACGUAAA | -0.691 ± 0.053 | -0.513 ± 0.075
15 | ACCCAGCAAUAUUACGUACG | -2.2 ± 0.14 | -1.71 ± 0.16
16 | ACCCAGCAAUAUUACGUAGC | -0.673 ± 0.044 | -0.163 ± 0.064
17 | ACCCAGCAAUAUUACGUAGU | 0.0959 ± 0.045 | 0.0745 ± 0.058
18 | ACCCAGCAAUAUUACGUGGA | -0.54 ± 0.048 | 0.15 ± 0.057
19 | ACCCAGCAAUAUUACGUUCA | -0.957 ± 0.061 | -0.811 ± 0.071
20 | ACCCAGCAAUAUUACGUUGA | -1.66 ± 0.073 | -1.03 ± 0.075
21 | ACCCAGCAAUAUUACGUUGU | -0.339 ± 0.043 | -0.0259 ± 0.057
22 | ACCGAGCAAUAUUACGAAGA | -3.11 ± 0.28 | -2.54 ± 0.29
23 | ACCGAGCAAUAUUACGACAC | -3.48 ± 0.38 | -1.73 ± 0.26
24 | ACCGAGCAAUAUUACGACUG | -2.73 ± 0.17 | -1.04 ± 0.16
25 | ACCGAGCAAUAUUACGAGUG | -2.82 ± 0.11 | -1.49 ± 0.094
26 | ACCGAGCAAUAUUACGAUGG | -2.27 ± 0.094 | -1.39 ± 0.11

Row | Sequence | self-splicing fitness (ln) (30 °C) | self-splicing fitness (ln) (37 °C)
27 | ACCGAGCAAUAUUACGCACC | -2.84 ± 0.22 | -1.08 ± 0.21
28 | ACCGAGCAAUAUUACGCCCU | -2.6 ± 0.25 | 0.248 ± 0.21
29 | ACCGAGCAAUAUUACGCGAU | -2.5 ± 0.14 | -1.73 ± 0.14
30 | ACCGAGCAAUAUUACGCGGA | -2.09 ± 0.1 | -0.721 ± 0.089
31 | ACCGAGCAAUAUUACGCUGU | -3.32 ± 0.17 | -0.834 ± 0.13
32 | ACCGAGCAAUAUUACGGACU | -0.27 ± 0.073 | 0.614 ± 0.1
33 | ACCGAGCAAUAUUACGGAUC | -3.86 ± 0.26 | -1.95 ± 0.2
34 | ACCGAGCAAUAUUACGGUAC | -2.82 ± 0.3 | -2.46 ± 0.33
35 | ACCGAGCAAUAUUACGGUGU | -2.88 ± 0.13 | -2.15 ± 0.12
36 | ACCGAGCAAUAUUACGGUUA | -1.33 ± 0.18 | -1.85 ± 0.17
37 | ACCGAGCAAUAUUACGUGGA | -2.84 ± 0.15 | -2.99 ± 0.18
38 | ACCGAGCAAUAUUACGUGUC | -3.24 ± 0.2 | -3.04 ± 0.27
39 | ACCGAGCAAUAUUACGUUAU | -3.78 ± 0.14 | -2.6 ± 0.15
40 | ACCGAGCAAUAUUACGUUCU | -2.38 ± 0.074 | -1.01 ± 0.074
41 | ACCGAGCAAUAUUACGUUUG | -2.86 ± 0.13 | -2.19 ± 0.14
42 | ACCUAGCAAUAUUACGAAGG | -2.16 ± 0.086 | -1.85 ± 0.15
43 | ACCUAGCAAUAUUACGACCC | -0.886 ± 0.2 | -0.637 ± 0.31
44 | ACCUAGCAAUAUUACGAGCA | -1.17 ± 0.1 | -1.59 ± 0.14
45 | ACCUAGCAAUAUUACGAGCG | -1.06 ± 0.085 | -0.509 ± 0.097
46 | ACCUAGCAAUAUUACGAUUC | -1.72 ± 0.083 | -0.58 ± 0.097
47 | ACCUAGCAAUAUUACGCAGG | -3.34 ± 0.23 | -2.73 ± 0.26
48 | ACCUAGCAAUAUUACGCAUC | -1.83 ± 0.072 | -0.436 ± 0.078
49 | ACCUAGCAAUAUUACGGACA | -0.384 ± 0.075 | -0.189 ± 0.08
50 | ACCUAGCAAUAUUACGGACC | -0.548 ± 0.16 | 0.368 ± 0.17
51 | ACCUAGCAAUAUUACGGCGA | -1.49 ± 0.12 | -0.462 ± 0.11
52 | ACCUAGCAAUAUUACGGGAG | -1.93 ± 0.072 | -1.41 ± 0.088

Row | Sequence | self-splicing fitness (ln) (30 °C) | self-splicing fitness (ln) (37 °C)
53 | ACCUAGCAAUAUUACGGGGU | -3.47 ± 0.16 | -2.61 ± 0.17
54 | ACCUAGCAAUAUUACGGUAC | -3.75 ± 0.37 | -2.76 ± 0.26
55 | ACCUAGCAAUAUUACGGUGC | -1.87 ± 0.074 | -0.926 ± 0.092
56 | ACCUAGCAAUAUUACGGUGU | -2.97 ± 0.1 | -1.93 ± 0.12
57 | ACCUAGCAAUAUUACGGUUG | -3.37 ± 0.13 | -2.71 ± 0.17
58 | ACCUAGCAAUAUUACGUCAC | -4.1 ± 0.18 | -1.83 ± 0.2
59 | ACCUAGCAAUAUUACGUCGC | -2.66 ± 0.18 | -0.636 ± 0.15
60 | ACCUAGCAAUAUUACGUCUG | -2.84 ± 0.2 | -2.03 ± 0.15
61 | ACCUAGCAAUAUUACGUUAC | -3.6 ± 0.21 | -3.13 ± 0.23
62 | ACCUAGCAAUAUUACGUUCG | -1.5 ± 0.078 | -0.444 ± 0.096
63 | ACGAAGCAAUAUUACGACAC | -2.4 ± 0.13 | -0.952 ± 0.14
64 | ACGAAGCAAUAUUACGACAU | -0.681 ± 0.011 | -0.109 ± 0.032
65 | ACGAAGCAAUAUUACGACCA | -0.752 ± 0.15 | -0.848 ± 0.13
66 | ACGAAGCAAUAUUACGACGA | -1.04 ± 0.097 | -0.181 ± 0.12
67 | ACGAAGCAAUAUUACGAGAA | -1.6 ± 0.37 | –
68 | ACGAAGCAAUAUUACGAGGA | -3.29 ± 0.44 | -2 ± 0.29
69 | ACGAAGCAAUAUUACGAGUU | -3.04 ± 0.11 | -1.91 ± 0.15
70 | ACGAAGCAAUAUUACGAUCG | -0.102 ± 0.073 | 0.139 ± 0.11
71 | ACGAAGCAAUAUUACGAUGU | -3.96 ± 0.19 | -2.74 ± 0.18
72 | ACGAAGCAAUAUUACGCACU | -0.656 ± 0.094 | -0.172 ± 0.11
73 | ACGAAGCAAUAUUACGCCGC | -3.56 ± 0.21 | -2.02 ± 0.24
74 | ACGAAGCAAUAUUACGCCGG | -0.858 ± 0.11 | -0.467 ± 0.11
75 | ACGAAGCAAUAUUACGCCUC | -2.93 ± 0.31 | -1.77 ± 0.47
76 | ACGAAGCAAUAUUACGCGAC | -3.14 ± 0.2 | -1.78 ± 0.19
